Molecular target: the molecule itself
Test: cryo-EM structure; single-particle cryoEM of the purified Salmonella MS-FliG ring complex in 25 mM Tris-HCl pH 8.0, 50 mM NaCl, 1 mM EDTA, 0.1% DDM; 8.6 Å (C1) and 6.1 Å (C11) reconstructions

B1: Salmonella FliF (MS-ring of the purified MS-FliG ring complex) (natural protein, UniProt P15928 1-560, looked up)
chain: MSATASTATQPKPLEWLNRLRANPRIPLIVAGSAAVAIVVAMVLWAKTPDYRTLFSNLSDQDGGAIVAQLTQMNIPYRFANGSGAIEVPADKVHELRLRLAQQGLPKGGAVGFELLDQEKFGISQFSEQVNYQRALEGELARTIETLGPVKSARVHLAMPKPSLFVREQKSPSASVTVTLEPGRALDEGQISAVVHLVSSAVAGLPPGNVTLVDQSGHLLTQSNTSGRDLNDAQLKFANDVESRIQRRIEAILSPIVGNGNVHAQVTAQLDFANKEQTEEHYSPNGDASKATLRSRQLNISEQVGAGYPGGVPGALSNQPAPPNEAPIATPPTNQQNAQNTPQTSTSTNSNSAGPRSTQRNETSNYEVDRTIRHTKMNVGDIERLSVAVVVNYKTLADGKPLPLTADQMKQIEDLTREAMGFSDKRGDTLNVVNSPFSAVDNTGGELPFWQQQSFIDQLLAAGRWLLVLVVAWILWRKAVRPQLTRRVEEAKAAQEQAQVRQETEEAVEVRLSKDEQLQQRRANQRLGAEVMSQRIREMSDNDPRVVALVIRQWMSNDHE
notes: FliF, flagellar M-ring protein, Salmonella; 60-kDa protein with two transmembrane helices and a large periplasmic region; also called St-FliF; copies: 34
stoichiometry N: 34

Source: publication PMC8092281, “Two Distinct Conformations in 34 FliF Subunits Generate Three Different Symmetries within the Flagellar MS-Ring” (mBio, 2021)
